Experimental data reported in patent US20160250325A1 (ISA PHARMACEUTICALS B V, published 2016).
Ends that are not written are not given here. * marks the point of attachment. X1 = (RS)‑2,3‑di(palmitoyloxy)propyl, CCCCCCCCCCCCCCCC(=O)OCC(C*)OC(=O)CCCCCCCCCCCCCCC

B1: U-Pam-12 (1-dodecadecyl-urea-Cys((RS)-2,3-di(palmitoyloxy)-propyl)-Ser-Lys-Lys-Lys-Lys-NH2) (peptide)
peptide: C(X1)SKKKK-NH2
modifications: not fully specified (N-terminus); printed as 1-dodecadecyl-urea-Cys((RS)-2,3-di(palmitoyloxy)-propyl)-Ser-Lys-Lys-Lys-Lys-NH2; also: epimer mixture at C-2 of dipalmitoyloxypropyl

Biological target: mouse TLR2 on a murine dendritic cell line (mouse, UniProt Q9QUN7 25-784)
Test: cell-based or functional assay

Sequence of mouse TLR2 on a murine dendritic cell line (Q9QUN7 25-784): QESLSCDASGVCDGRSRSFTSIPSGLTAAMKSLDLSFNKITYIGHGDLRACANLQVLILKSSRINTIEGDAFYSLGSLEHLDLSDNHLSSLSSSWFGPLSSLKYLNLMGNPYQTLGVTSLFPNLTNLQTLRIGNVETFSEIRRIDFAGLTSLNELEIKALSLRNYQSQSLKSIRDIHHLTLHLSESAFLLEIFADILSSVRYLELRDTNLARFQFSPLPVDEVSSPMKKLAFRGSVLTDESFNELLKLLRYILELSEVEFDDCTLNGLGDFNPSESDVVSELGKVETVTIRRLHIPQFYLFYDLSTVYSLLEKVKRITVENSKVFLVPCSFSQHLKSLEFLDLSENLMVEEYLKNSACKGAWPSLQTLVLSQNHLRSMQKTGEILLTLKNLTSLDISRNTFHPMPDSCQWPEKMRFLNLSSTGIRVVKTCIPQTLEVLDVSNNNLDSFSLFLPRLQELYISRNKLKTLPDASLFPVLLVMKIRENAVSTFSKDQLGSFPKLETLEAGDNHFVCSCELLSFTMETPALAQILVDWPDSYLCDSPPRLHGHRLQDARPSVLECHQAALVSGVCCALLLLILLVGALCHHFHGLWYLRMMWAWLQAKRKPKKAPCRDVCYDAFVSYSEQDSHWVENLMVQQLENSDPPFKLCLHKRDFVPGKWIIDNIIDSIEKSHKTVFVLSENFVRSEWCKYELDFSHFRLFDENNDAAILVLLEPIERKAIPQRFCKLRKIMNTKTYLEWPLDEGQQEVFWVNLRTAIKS

| Binder | IL-12 in supernatant of a murine dendritic cell line after 24 h (sandwich ELISA); concentration needed for similar stimulation, against Pam3CysSK4 [fold] | IL-12 in supernatant of a murine dendritic cell line after 24 h (sandwich ELISA); maximal stimulation level against Pam3CysSK4 [fold] |
| --- | --- | --- |
| B1 | 100 | 2 |
| {1‑tetradecyl‑urea}-C(X1)SKKKK-NH2 (also: epimer mixture at C-2 of dipalmitoyloxypropyl) [U-Pam-14 (1-tetradecyl-urea-Cys((RS)-2,3-di(palmitoyloxy)-propyl)-Ser-Lys-Lys-Lys-Lys-NH2)] | 100 | 2 |
